Assay results published in patent US6855515B1, “Autoantigenic fragments, methods and assays” (Merck & Co., Inc., priority 1998, dated 2005).
Entries after “also recorded” stand apart in the source; their conditions may differ.

How the values were obtained:
granzyme B = target: T1, granzyme B (Homo sapiens, UniProt P10144); assay: In vitro cleavage of substrates by purified granzyme B, kcat/Km from densitometry; format: biochemical; conditions: in the presence of 10 μg/ml DNA
T1 construct: Some of these preparations were used for the further purification of granzyme B (Tschopp, 1994); endogenous in cells; host or cells: YT cells (human NK cell line), cytoplasmic granules
Description: cDNAs for caspase-3, caspase-7, NuMA and PARP were used to drive the synthesis of [^35S]methionine-labeled proteins by coupled transcription/translation in rabbit reticulocyte lysates. For all purified substrates, cleavage reactions were performed in buffer consisting of 50 mM Hepes pH 7.4, 10% sucrose and 5 mM DTT in the presence of the granzyme B concentrations indicated in FIG. 1. After incubation at 37° C. for 15 min, reactions were terminated and samples were electrophoresed on 10% (DNA-PKcs, NuMA), 12% (PARP) or 15% (caspases 3 and 7) SDS-polyacrylamide gels. Radiolabeled proteins and their fragments were visualized by fluorography. Intact and cleaved DNA-PKcs were visualized by immunoblotting with monoclonal antibody 18-2 (Casciola-Rosen et al., 1995).
Catalytic constant (kcat/km) values were calculated essentially as described (Casciola-Rosen et al., 1996). Briefly, subsaturating substrate concentrations were used in each in vitro reaction, and product appearance was assumed to be a first order process. […] Several appropriate densitometry systems are available, e.g. PDI Discovery System, with Quantity One Software, Protein Databases, Inc., (Huntington Station, N.Y.). kcat/Km values were calculated by fitting the dose-response data to the first order rate equation: percent substrate cleavage=100*((1^-e-((kcat*[E]/Km)*time)). […]

SP1 [1] = conditions: Casciola-Rosen et al., 1996; cited from earlier work
SP1 [2] = assay: DNA-PKcs kinase assay (SP1 phosphorylation); format: biochemical; conditions: 12.5 nM granzyme B, 13.5 min, 37° C., then DNA, ATP
Description: Kinase assays were performed on intact DNA-PKcs or DNA-PKcs that had first been cleaved by granzyme B as follows. Reaction mixtures containing 10 mM Hepes pH 7.4, 2 mM MgCl2, 10 mM KCl, 2.7 mM DTT, and 50 ng DNA-PKcs in the absence or presence of 12.5 nM purified granzyme B, were incubated for 13.5 min at 37° C. Kinase reactions were subsequently initiated by adding 100 ng SP1 and 150 μM ATP containing 1.5 μCi [^32P]-ATP (3000 Ci/mmol), in the absence or presence of 10 μg/ml sheared herring sperm DNA (Promega). Samples were incubated at 37° C. for 10 min (well within the linear range of the assay, data not shown), before terminating the reactions by adding SDS gel buffer and boiling. After electrophoresing the samples on 8% SDS-PAGE, SP1 phosphorylation was detected by autoradiography, and quantitated by densitometry. Cleaved status of the kinase was confirmed in parallel by immunoblotting.

T1 sequence (P10144 21-247): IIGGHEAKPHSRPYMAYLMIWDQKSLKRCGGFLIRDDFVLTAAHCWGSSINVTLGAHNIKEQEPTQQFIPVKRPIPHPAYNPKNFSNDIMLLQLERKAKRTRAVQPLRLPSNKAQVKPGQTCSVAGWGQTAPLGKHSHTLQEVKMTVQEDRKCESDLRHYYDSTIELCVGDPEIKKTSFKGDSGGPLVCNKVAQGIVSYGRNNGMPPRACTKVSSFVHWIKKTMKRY

## DNA-dependent protein kinase catalytic subunit [DNA-PKCS]
Granzyme B
  decrease of DNA-PKcs cleavage by granzyme B: approximately 90%
SP1 [1]
  kinase activity of DNA-PKcs after caspase-3 cleavage: approximately 60 % of control levels
SP1 [2]
  kinase activity of DNA-PKcs after cleavage by granzyme B: entirely abolished; also recorded: completely abrogates
